Source: patent publication US20160083480A1 (Zymeworks, published 2016)

Experiments:
[1] = molecular target: T1, HER2 and HER3 co-expressed on human tumour cells (human, UniProt P04626 23-1255; P21860 20-1342); test: cell-based or functional assay
[2] = molecular target: T1, HER2 and HER3 co-expressed on human …; test: flow cytometry on MALME-3M cells, fluorochrome-labelled secondary antibody
Protocol: (§1) The FACS analysis was carried out as described below.
(§2) Cells were washed with PBS and resuspended in DMEM containing 10% FBS at 1×10⁵ cells/100 μl. 100 μl cell suspension was added into each microcentrifuge tube, followed by 10 μl/tube of the antibody variants. The tubes were incubated for 2 hr 4° C. on a rotator. The microcentrifuge tubes were centrifuged for 2 min 2000 RPM at room temperature and the cell pellets washed with 500 μl media. Each cell pellet was resuspended 100 μl of fluorochrome-labelled secondary antibody diluted in media to 2 μg/sample. The samples were then incubated for 1 hr at 4° C. on a rotator. After incubation, the cells were centrifuged for 2 min at 2000 RPM and washed in media. The cells were resuspended in 500 μl media, filtered in tube containing 5 μl propidium iodide (PI) and analyzed on a BD™ LSRII flow cytometer according to the manufacturer's instructions.

[3] = molecular target: T2, HER3 on human tumour cells (human, UniProt P21860 20-1342); test: as above
T2 construct: whole, on cells; also called ErbB3
Protocol: as §1, §2

B1: Variant 880 (bi-specific anti-HER2-HER3 antibody; B1D2 scFv on chain A, H3 scFv on chain B, heterodimeric Fc) (bispecific antibody)
scFv-Fc A: QVQLVQSGAEVKKPGESLKISCKGSGYSFTSYWIAWVRQMPGKGLEYMGLIYPGDSDTKYSPSFQGQVTISVDKSVSTAYLQWSSLKPSDSAVYFCARHDVGYCTDRTCAKWPEWLGVWGQGTLVTVSSGGGGSSGGGSGGGGSQSVLTQPPSVSAAPGQKVTISCSGSSSNIGNNYVSWYQQLPGTAPKLLIYDHTNRPAGVPDRFSGSKSGTSASLAISGFRSEDEADYYCASWDYTLSGWVFGGGTKLTVLGAAEPKSSDKTHTCPPCPAPELLGGPSVFLFPPKPKDTLMISRTPEVTCVVVDVSHEDPEVKFNWYVDGVEVHNAKTKPREEQYNSTYRVVSVLTVLHQDWLNGKEYKCKVSNKALPAPIEKTISKAKGQPREPQVYTYPPSRDELTKNQVSLTCLVKGFYPSDIAVEWESNGQPENNYKTTPPVLDSDGSFALVSKLTVDKSRWQQGNVFSCSVMHEALHNHYTQKSLSLSPGK
scFv-Fc B: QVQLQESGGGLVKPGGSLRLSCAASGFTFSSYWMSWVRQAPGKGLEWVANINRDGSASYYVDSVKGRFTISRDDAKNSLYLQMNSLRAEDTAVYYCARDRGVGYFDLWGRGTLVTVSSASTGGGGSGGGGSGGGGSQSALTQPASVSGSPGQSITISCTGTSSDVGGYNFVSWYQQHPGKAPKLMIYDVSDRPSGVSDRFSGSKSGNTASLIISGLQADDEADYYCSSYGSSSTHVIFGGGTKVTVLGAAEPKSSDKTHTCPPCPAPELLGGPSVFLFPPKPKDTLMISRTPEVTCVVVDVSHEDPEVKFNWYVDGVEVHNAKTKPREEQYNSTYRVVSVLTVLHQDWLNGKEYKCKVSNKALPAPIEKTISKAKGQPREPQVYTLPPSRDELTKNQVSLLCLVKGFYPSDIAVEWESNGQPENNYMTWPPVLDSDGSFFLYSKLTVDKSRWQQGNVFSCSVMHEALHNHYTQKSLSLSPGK
notes: also called v880; bsAb variant 880
[1]
  BT-474 cell viability relative to untreated cells (Sulforhodamine B, 6 days, no heregulin): 36 % increase
[2]
  EC50 (read off the curve): ~10 nM

B2: v877 (monospecific bivalent antibody with two identical HER3-binding scFvs connected to a homodimeric Fc) (antibody, V domains shown)
VH: QVQLQESGGGLVKPGGSLRLSCAASGFTFSSYWMSWVRQAPGKGLEWVANINRDGSASYYVDSVKGRFTISRDDAKNSLYLQMNSLRAEDTAVYYCARDRGVGYFDLWGRGTLVTVSS
VL: QSALTQPASVSGSPGQSITISCTGTSSDVGGYNFVSWYQQHPGKAPKLMIYDVSDRPSGVSDRFSGSKSGNTASLIISGLQADDEADYYCSSYGSSSTHVIFGGGTKVTVL
notes: also called variant 877; monospecific bivalent control for HER3
[3]
  binding result: binds
